Molecular target: T1, bovine serum albumin (BSA) (bovine, UniProt P02769 25-607)
T1 construct: Control protein for non-specific adsorption to the ASF-SPR chip
Experiment: SPR, ASF-immobilised chip, BSA in solution
Procedure: The ASF-SPR chip was prepared starting with a 50 nm gold-coated SF10 glass substrate. The first SAM layer was self-assembled using a mixed ethanolic solution of 5×10⁻⁵ M cysteamine (NH₂ terminated thiol) (Sigma-Aldrich, Sydney, Australia) and 4.5×10⁻⁴ M mercaptoethanol (OH terminated thiol, as spacers) (Sigma-Aldrich, Sydney, Australia) for 15 h at room temperature. The second layer of biotin was introduced by coupling biotin-hexanoic acid (Sigma-Aldrich, Sydney, Australia) with cysteamine by activating 1 mg/ml biotin-hexanoic acid in PBS (prepared from a 6 mg/mL stock in dimethylformamide (DMF, Sigma-Aldrich, Sydney, Australia) with 4 mg/mL of 1-(3-dimethylaminopropy)-3-ethylcarbodiimide hydrochloride (EDC, Sigma-Aldrich, Sydney, Australia) and 0.7 mg/mL of N-hydroxysuccinimide (NHS, Sigma-Aldrich, Sydney, Australia). The third layer (of SA) was constructed by loading 45 μg/mL of SA (Invitrogen, Mount Waverley, Australia) into the flow cell, which specifically binds to biotin. This step took about 10 min to reach equilibrium. The SA layer was then activated by 4 mg/mL EDC and 0.7 mg/mL NHS for 5 min, enabling its carboxylic acid residue to react with the primary amino group of ASF (Sigma-Aldrich, Sydney, Australia). 1.0 mg/mL ASF was used in this step to prepare the fourth layer. […]

T1 sequence (P02769 25-607 limits assumed): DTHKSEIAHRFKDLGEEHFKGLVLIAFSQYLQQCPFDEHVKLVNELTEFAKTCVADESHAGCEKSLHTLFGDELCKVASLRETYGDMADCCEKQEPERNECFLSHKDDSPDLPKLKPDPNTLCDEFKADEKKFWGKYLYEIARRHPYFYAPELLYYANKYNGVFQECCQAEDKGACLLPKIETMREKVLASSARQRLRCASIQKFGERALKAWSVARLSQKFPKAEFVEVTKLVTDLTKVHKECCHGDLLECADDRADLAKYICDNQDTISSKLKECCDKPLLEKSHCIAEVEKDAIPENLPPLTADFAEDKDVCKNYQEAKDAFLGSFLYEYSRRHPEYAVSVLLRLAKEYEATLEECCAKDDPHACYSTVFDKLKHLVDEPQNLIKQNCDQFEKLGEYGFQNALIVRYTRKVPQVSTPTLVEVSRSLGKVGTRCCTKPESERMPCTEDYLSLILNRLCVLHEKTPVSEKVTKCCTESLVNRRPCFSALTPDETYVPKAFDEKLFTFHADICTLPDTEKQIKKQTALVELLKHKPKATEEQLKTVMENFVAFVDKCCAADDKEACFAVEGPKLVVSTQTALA

B1: asialofetuin (ASF) (other, UniProt P12763 19-359, looked up)
chain: IPLDPVAGYKEPACDDPDTEQAALAAVDYINKHLPRGYKHTLNQIDSVKVWPRRPTGEVYDIEIDTLETTCHVLDPTPLANCSVRQQTQHAVEGDCDIHVLKQDGQFSVLFTKCDSSPDSAEDVRKLCPDCPLLAPLNDSRVVHAVEVALATFNAESNGSYLQLVEISRAQFVPLPVSVSVEFAVAATDCIAKEVVDPTKCNLLAEKQYGFCKGSVIQKALGGEDVRVTCTLFQTQPVIPQPQPDGAEAEAPSAVPDAAGPTPSAAGPPVASVVVGPSVVAVPLPLHRAHYDLRHTFSGVASVESSSGEAFHVGKTPIVGQPSIPGGPVRLCPGRIRYFKI
modifications: three triantennary N-link oligosaccharide chains with terminal N-acetyllactosamine (LacNAC) residues and three O-linked disaccharide chains (desialylated)
notes: Immobilised on a home-made SPR chip (thiol-SAM/biotin/streptavidin/ASF) by EDC/NHS coupling to streptavidin; also called asiolofetuin
binding result: no binding (tested: 4.4 mg/mL)
